PMC9482650, “Quantitative fragmentomics allow affinity mapping of interactomes” (Nature Communications, 2022)

T1: GRIP1_4, Q9Y3R0
T1 sequence (Q9Y3R0 467-571, limits assumed, looked up): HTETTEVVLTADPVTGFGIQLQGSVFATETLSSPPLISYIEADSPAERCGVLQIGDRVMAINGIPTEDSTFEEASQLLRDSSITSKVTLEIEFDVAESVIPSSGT

T2: LRRC7, Q96NW7
T2 sequence (Q96NW7 1440-1537, limits assumed, looked up): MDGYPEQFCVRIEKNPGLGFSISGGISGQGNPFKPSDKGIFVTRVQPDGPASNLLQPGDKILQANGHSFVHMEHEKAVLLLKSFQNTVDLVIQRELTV

T3: SIPA1L2, Q9P2F8
T3 sequence (Q9P2F8 945-1036, limits assumed, looked up): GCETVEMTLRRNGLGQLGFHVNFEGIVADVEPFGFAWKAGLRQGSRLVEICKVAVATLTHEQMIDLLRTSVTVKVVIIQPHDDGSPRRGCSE

T4: PARD3B_1, Q8TEW8
T4 sequence (Q8TEW8 196-299, limits assumed, looked up): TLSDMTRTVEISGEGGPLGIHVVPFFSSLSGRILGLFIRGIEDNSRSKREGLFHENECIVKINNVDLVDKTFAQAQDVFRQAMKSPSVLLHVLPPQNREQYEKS

T5: PCLO, Q9Y6V0
T5 sequence (Q9Y6V0 4491-4600, limits assumed, looked up): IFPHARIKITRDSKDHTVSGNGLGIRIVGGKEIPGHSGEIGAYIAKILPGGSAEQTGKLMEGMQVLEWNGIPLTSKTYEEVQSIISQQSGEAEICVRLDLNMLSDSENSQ

T6: LNX2_2, Q8N448
T6 sequence (Q8N448 334-432, limits assumed, looked up): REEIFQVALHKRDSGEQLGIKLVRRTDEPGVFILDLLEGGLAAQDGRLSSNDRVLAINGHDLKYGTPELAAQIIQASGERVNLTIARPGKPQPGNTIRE

T7: MPDZ_10, O75970
T7 sequence (O75970 1624-1722, limits assumed, looked up): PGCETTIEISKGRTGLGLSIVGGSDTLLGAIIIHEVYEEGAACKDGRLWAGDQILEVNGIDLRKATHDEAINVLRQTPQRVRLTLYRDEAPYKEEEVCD

T8: DFNB31_3, Q9P202
T8 sequence (Q9P202 811-907, limits assumed, looked up): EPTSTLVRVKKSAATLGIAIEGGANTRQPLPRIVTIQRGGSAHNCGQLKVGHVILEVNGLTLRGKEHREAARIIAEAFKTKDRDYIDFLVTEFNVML

T9: GRIP1_7, Q9Y3R0
T9 sequence (Q9Y3R0 999-1096, limits assumed, looked up): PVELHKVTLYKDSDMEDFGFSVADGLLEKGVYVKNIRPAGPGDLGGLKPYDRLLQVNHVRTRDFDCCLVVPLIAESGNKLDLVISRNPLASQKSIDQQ

T10: DLG3_1, Q92796
T10 sequence (Q92796 125-227, limits assumed, looked up): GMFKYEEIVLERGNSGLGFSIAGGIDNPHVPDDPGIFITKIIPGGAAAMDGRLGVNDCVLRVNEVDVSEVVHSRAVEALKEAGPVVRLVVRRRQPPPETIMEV

T11: TIAM2, Q8IVF5
T11 sequence (Q8IVF5 885-986, limits assumed, looked up): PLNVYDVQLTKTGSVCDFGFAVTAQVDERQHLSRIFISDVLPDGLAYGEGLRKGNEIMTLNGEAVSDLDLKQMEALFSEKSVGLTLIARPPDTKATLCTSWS


What follows are binders tested against NOS1, P29475 (assay: holdup assay). Details: plain residues with an end cap or a label only (N-terminal biotin on a linker: ado-ado).
NOS1, P29475, sequence (P29475 9-101): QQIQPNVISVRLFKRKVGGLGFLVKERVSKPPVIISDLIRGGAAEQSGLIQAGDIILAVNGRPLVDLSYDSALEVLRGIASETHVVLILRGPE
Parameters: key: below the threshold = too weak to quantify, mostly under pKd 3.1 to 4

pKd | Binder
below the threshold | GQETPLNTFC [MAP7D2, Q96T17]

The binders below were run against T1, GRIP1_4, Q9Y3R0 (assay: holdup assay). Details: plain residues with an end cap or a label only (N-terminal biotin on a linker: ado-ado).
Parameters: key: below the threshold = too weak to quantify, mostly under pKd 3.1 to 4

pKd | Binder
below the threshold | GQETPLNTFC [MAP7D2, Q96T17]

What follows are binders tested against LAP2, Q96RT1 (assay: holdup assay). Details: plain residues with an end cap or a label only (N-terminal biotin on a linker: ado-ado).
LAP2, Q96RT1, sequence (Q96RT1 other isoform, or with tags, fused parts or gaps): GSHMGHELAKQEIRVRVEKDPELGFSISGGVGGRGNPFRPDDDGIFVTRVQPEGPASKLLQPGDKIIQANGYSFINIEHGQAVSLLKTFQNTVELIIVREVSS
Parameters: key: below the threshold = too weak to quantify, mostly under pKd 3.1 to 4

pKd | Binder
below the threshold | GQETPLNTFC [MAP7D2, Q96T17]

Each binder was assayed against PDLIM1, O00151 (assay: holdup assay). Details: plain residues with an end cap or a label only (N-terminal biotin on a linker: ado-ado).
PDLIM1, O00151, sequence (O00151 1-87): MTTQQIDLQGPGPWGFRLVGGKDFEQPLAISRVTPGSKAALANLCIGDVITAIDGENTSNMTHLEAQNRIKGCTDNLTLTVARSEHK
Parameters: key: below the threshold = too weak to quantify, mostly under pKd 3.1 to 4

pKd | Binder
below the threshold | GQETPLNTFC [MAP7D2, Q96T17]

The binders below were run against T2, LRRC7, Q96NW7 (assay: holdup assay). Details: plain residues with an end cap or a label only (N-terminal biotin on a linker: ado-ado).
Parameters: key: below the threshold = too weak to quantify, mostly under pKd 3.1 to 4

pKd | Binder
below the threshold | GQETPLNTFC [MAP7D2, Q96T17]

These binders were tested against T3, SIPA1L2, Q9P2F8 (assay: holdup assay). Details: plain residues with an end cap or a label only (N-terminal biotin on a linker: ado-ado).
Parameters: key: below the threshold = too weak to quantify, mostly under pKd 3.1 to 4

pKd | Binder
below the threshold | GQETPLNTFC [MAP7D2, Q96T17]

What follows are binders tested against GRID2IP_1, A4D2P6 (assay: holdup assay). Details: plain residues with an end cap or a label only (N-terminal biotin on a linker: ado-ado).
GRID2IP_1, A4D2P6, sequence (A4D2P6 1-87): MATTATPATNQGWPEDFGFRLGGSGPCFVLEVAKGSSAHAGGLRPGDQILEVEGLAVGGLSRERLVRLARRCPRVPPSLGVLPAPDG
Parameters: key: below the threshold = too weak to quantify, mostly under pKd 3.1 to 4

pKd | Binder
below the threshold | GQETPLNTFC [MAP7D2, Q96T17]

Each binder was assayed against MAGI2_3, Q86UL8 (assay: holdup assay). Details: plain residues with an end cap or a label only (N-terminal biotin on a linker: ado-ado).
MAGI2_3, Q86UL8, sequence (Q86UL8 600-682): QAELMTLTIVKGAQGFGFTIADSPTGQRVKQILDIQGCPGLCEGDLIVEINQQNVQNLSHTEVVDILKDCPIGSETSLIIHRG
Parameters: key: below the threshold = too weak to quantify, mostly under pKd 3.1 to 4

pKd | Binder
below the threshold | GQETPLNTFC [MAP7D2, Q96T17]

These binders were tested against T4, PARD3B_1, Q8TEW8 (assay: holdup assay). Details: plain residues with an end cap or a label only (N-terminal biotin on a linker: ado-ado).
Parameters: key: below the threshold = too weak to quantify, mostly under pKd 3.1 to 4

pKd | Binder
below the threshold | GQETPLNTFC [MAP7D2, Q96T17]

The binders below were run against DLG2_2, Q15700 (assay: holdup assay). Details: plain residues with an end cap or a label only (N-terminal biotin on a linker: ado-ado).
DLG2_2, Q15700, sequence (Q15700 189-283): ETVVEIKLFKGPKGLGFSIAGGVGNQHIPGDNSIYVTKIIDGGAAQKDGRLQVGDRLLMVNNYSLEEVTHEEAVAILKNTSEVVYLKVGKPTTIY
Parameters: key: below the threshold = too weak to quantify, mostly under pKd 3.1 to 4

pKd | Binder
below the threshold | GQETPLNTFC [MAP7D2, Q96T17]

What follows are binders tested against NHERF4_2, Q86UT5 (assay: holdup assay). Details: plain residues with an end cap or a label only (N-terminal biotin on a linker: ado-ado).
NHERF4_2, Q86UT5, sequence (Q86UT5 220-308): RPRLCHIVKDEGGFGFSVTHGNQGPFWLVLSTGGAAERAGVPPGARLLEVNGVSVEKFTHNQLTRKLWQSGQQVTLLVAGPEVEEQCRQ
Parameters: key: below the threshold = too weak to quantify, mostly under pKd 3.1 to 4

pKd | Binder
below the threshold | GQETPLNTFC [MAP7D2, Q96T17]

These binders were tested against T5, PCLO, Q9Y6V0 (assay: holdup assay). Details: plain residues with an end cap or a label only (N-terminal biotin on a linker: ado-ado).
Parameters: key: below the threshold = too weak to quantify, mostly under pKd 3.1 to 4

pKd | Binder
below the threshold | GQETPLNTFC [MAP7D2, Q96T17]

The binders below were run against SCRIB_3, Q14160 (assay: holdup assay). Details: plain residues with an end cap or a label only (N-terminal biotin on a linker: ado-ado).
SCRIB_3, Q14160, sequence (Q14160 999-1103): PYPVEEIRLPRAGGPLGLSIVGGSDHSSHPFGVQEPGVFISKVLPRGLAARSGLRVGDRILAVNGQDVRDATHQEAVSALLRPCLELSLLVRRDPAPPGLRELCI
Parameters: key: below the threshold = too weak to quantify, mostly under pKd 3.1 to 4

pKd | Binder
below the threshold | GQETPLNTFC [MAP7D2, Q96T17]

These binders were tested against AHNAK1, Q09666 (assay: holdup assay). Details: plain residues with an end cap or a label only (N-terminal biotin on a linker: ado-ado).
AHNAK1, Q09666, sequence (Q09666 4-100): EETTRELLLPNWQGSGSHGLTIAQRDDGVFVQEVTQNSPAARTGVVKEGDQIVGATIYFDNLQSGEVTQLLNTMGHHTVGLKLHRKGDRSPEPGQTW
Parameters: key: below the threshold = too weak to quantify, mostly under pKd 3.1 to 4

pKd | Binder
below the threshold | GQETPLNTFC [MAP7D2, Q96T17]

The binders below were run against T6, LNX2_2, Q8N448 (assay: holdup assay). Details: plain residues with an end cap or a label only (N-terminal biotin on a linker: ado-ado).
Parameters: key: below the threshold = too weak to quantify, mostly under pKd 3.1 to 4

pKd | Binder
below the threshold | GQETPLNTFC [MAP7D2, Q96T17]

The binders below were run against TJP1_2, Q07157 (assay: holdup assay). Details: plain residues with an end cap or a label only (N-terminal biotin on a linker: ado-ado).
TJP1_2, Q07157, sequence (Q07157 181-274): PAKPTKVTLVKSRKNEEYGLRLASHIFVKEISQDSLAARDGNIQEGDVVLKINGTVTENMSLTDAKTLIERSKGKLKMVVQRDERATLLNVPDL
Parameters: key: below the threshold = too weak to quantify, mostly under pKd 3.1 to 4

pKd | Binder
below the threshold | GQETPLNTFC [MAP7D2, Q96T17]

What follows are binders tested against T7, MPDZ_10, O75970 (assay: holdup assay). Details: plain residues with an end cap or a label only (N-terminal biotin on a linker: ado-ado).
Parameters: key: below the threshold = too weak to quantify, mostly under pKd 3.1 to 4

pKd | Binder
below the threshold | GQETPLNTFC [MAP7D2, Q96T17]

These binders were tested against T8, DFNB31_3, Q9P202 (assay: holdup assay). Details: plain residues with an end cap or a label only (N-terminal biotin on a linker: ado-ado).
Parameters: key: below the threshold = too weak to quantify, mostly under pKd 3.1 to 4

pKd | Binder
below the threshold | GQETPLNTFC [MAP7D2, Q96T17]

The binders below were run against T9, GRIP1_7, Q9Y3R0 (assay: holdup assay). Details: plain residues with an end cap or a label only (N-terminal biotin on a linker: ado-ado).
Parameters: key: below the threshold = too weak to quantify, mostly under pKd 3.1 to 4

pKd | Binder
below the threshold | GQETPLNTFC [MAP7D2, Q96T17]

The binders below were run against DLG4_2, P78352 (assay: holdup assay). Details: plain residues with an end cap or a label only (N-terminal biotin on a linker: ado-ado).
DLG4_2, P78352, sequence (P78352 155-259): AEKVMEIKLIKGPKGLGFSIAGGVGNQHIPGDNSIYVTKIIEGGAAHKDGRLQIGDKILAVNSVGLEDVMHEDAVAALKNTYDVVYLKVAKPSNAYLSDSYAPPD
Parameters: key: below the threshold = too weak to quantify, mostly under pKd 3.1 to 4

pKd | Binder
3.48 | GQETPLNTFC [MAP7D2, Q96T17]

Each binder was assayed against T10, DLG3_1, Q92796 (assay: holdup assay). Details: plain residues with an end cap or a label only (N-terminal biotin on a linker: ado-ado).
Parameters: key: below the threshold = too weak to quantify, mostly under pKd 3.1 to 4

pKd | Binder
below the threshold | GQETPLNTFC [MAP7D2, Q96T17]

What follows are binders tested against MAGI2_6, Q86UL8 (assay: holdup assay). Details: plain residues with an end cap or a label only (N-terminal biotin on a linker: ado-ado).
MAGI2_6, Q86UL8, sequence (Q86UL8 1141-1229): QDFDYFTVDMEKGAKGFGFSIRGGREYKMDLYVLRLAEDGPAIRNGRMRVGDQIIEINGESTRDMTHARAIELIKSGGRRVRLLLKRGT
Parameters: key: below the threshold = too weak to quantify, mostly under pKd 3.1 to 4

pKd | Binder
below the threshold | GQETPLNTFC [MAP7D2, Q96T17]

Each binder was assayed against Inadl_1, Q8NI35 (assay: holdup assay). Details: plain residues with an end cap or a label only (N-terminal biotin on a linker: ado-ado).
Inadl_1, Q8NI35, sequence (Q8NI35 113-229): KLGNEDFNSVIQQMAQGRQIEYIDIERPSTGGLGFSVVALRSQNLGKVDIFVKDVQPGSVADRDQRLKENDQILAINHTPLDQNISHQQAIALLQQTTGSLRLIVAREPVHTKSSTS
Parameters: key: below the threshold = too weak to quantify, mostly under pKd 3.1 to 4

pKd | Binder
below the threshold | GQETPLNTFC [MAP7D2, Q96T17]

Each binder was assayed against T11, TIAM2, Q8IVF5 (assay: holdup assay). Details: plain residues with an end cap or a label only (N-terminal biotin on a linker: ado-ado).
Parameters: key: below the threshold = too weak to quantify, mostly under pKd 3.1 to 4

pKd | Binder
3.62 | GQETPLNTFC [MAP7D2, Q96T17]

What follows are binders tested against SCRIB_2, Q14160 (assay: holdup assay). Details: plain residues with an end cap or a label only (N-terminal biotin on a linker: ado-ado).
SCRIB_2, Q14160, sequence (Q14160 857-960): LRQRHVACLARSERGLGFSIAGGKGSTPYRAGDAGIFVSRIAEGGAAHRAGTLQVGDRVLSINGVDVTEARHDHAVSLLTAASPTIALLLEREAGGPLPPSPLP
Parameters: key: below the threshold = too weak to quantify, mostly under pKd 3.1 to 4

pKd | Binder
below the threshold | GQETPLNTFC [MAP7D2, Q96T17]

The binders below were run against DLG1_1, Q12959 (assay: holdup assay). Details: plain residues with an end cap or a label only (N-terminal biotin on a linker: ado-ado).
Parameters: key: below the threshold = too weak to quantify, mostly under pKd 3.1 to 4

pKd | Binder
below the threshold | GQETPLNTFC [MAP7D2, Q96T17]

The binders below were run against HTRA1, Q92743 (assay: holdup assay). Details: plain residues with an end cap or a label only (N-terminal biotin on a linker: ado-ado).
HTRA1, Q92743, sequence (Q92743 360-477): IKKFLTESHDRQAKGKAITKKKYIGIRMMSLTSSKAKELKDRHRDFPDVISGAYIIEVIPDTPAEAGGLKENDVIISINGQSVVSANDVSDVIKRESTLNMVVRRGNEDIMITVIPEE
Parameters: key: below the threshold = too weak to quantify, mostly under pKd 3.1 to 4

pKd | Binder
3.79 | GQETPLNTFC [MAP7D2, Q96T17]
